The text below walks through data of PMC6945527 (European Heart Journal, 2019).

In test [1] the target is CAP1 of the surface plasmon resonance assay and of the binding-affinity measurement (UniProt Q01518).
For test [2], the target named is PCSK9 WT of the binding-affinity measurement (Figure S2) (human, UniProt Q8NBP7 31-692).
Test [3] addresses PCSK9 A514T of the binding-affinity measurement (Figure S2) (human, UniProt Q8NBP7 31-692, A514T).
Test [4] concerns the target PCSK9 S668RG670E of the binding-affinity measurement (Figure S2) (human, UniProt Q8NBP7 31-692, S668R | G670E).

Chain of PCSK9 S668RG670E of the binding-affinity measurement (Figure S2) (Q8NBP7 31-692 S668R/G670E): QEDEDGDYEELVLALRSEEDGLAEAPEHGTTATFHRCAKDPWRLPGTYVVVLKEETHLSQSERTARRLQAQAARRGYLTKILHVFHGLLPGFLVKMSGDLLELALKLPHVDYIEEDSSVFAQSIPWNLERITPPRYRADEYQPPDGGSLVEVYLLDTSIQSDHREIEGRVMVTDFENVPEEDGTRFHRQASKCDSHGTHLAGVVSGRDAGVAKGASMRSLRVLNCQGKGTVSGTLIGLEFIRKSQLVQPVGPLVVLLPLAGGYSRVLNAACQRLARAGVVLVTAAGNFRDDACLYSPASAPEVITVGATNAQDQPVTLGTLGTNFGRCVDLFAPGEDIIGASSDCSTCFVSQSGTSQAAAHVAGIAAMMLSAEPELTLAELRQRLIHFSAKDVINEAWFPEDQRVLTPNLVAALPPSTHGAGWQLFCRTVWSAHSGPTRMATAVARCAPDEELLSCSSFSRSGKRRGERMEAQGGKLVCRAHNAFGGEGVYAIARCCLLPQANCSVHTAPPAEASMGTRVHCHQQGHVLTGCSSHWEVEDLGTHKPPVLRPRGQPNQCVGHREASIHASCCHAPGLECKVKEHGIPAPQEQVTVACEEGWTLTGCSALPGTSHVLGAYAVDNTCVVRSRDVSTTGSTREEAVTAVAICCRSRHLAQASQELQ
Chain of PCSK9 WT of the binding-affinity measurement (Figure S2) (Q8NBP7 31-692): as the sequence (Q8NBP7 31-692 S668R/G670E) above, with R638S, E640G counted along it
Chain of PCSK9 A514T of the binding-affinity measurement (Figure S2) (Q8NBP7 31-692 A514T): as the sequence (Q8NBP7 31-692 S668R/G670E) above, with A484T, R638S, E640G counted along it

For orientation: Kd means the free concentration of one partner at which half of the binding sites on the other are occupied at equilibrium, for simple one-to-one binding. A lower Kd goes with tighter binding. With “PCSK9 G670E of the binding-affinity measurement (Figure S2) (from UniProt Q8NBP7 31-692) (natural protein)”, in test [1], the Kd worked out at 0.96 µM.

B1: CAP1 of the surface plasmon resonance assay and of the binding-affinity measurement (natural protein)
chain: MADMQNLVERLERAVGRLEAVSHTSDMHRGYADSPSKAGAAPYVQAFDSLLAGPVAEYLKISKEIGGDVQKHAEMVHTGLKLERALLVTASQCQQPAENKLSDLLAPISEQIKEVITFREKNRGSKLFNHLSAVSESIQALGWVAMAPKPGPYVKEMNDAAMFYTNRVLKEYKDVDKKHVDWVKAYLSIWTELQAYIKEFHTTGLAWSKTGPVAKELSGLPSGPSAGSCPPPPPPCPPPPPVSTISCSYESASRSSLFAQINQGESITHALKHVSDDMKTHKNPALKAQSGPVRSGPKPFSAPKPQTSPSPKRATKKEPAVLELEGKKWRVENQENVSNLVIEDTELKQVAYIYKCVNTTLQIKGKINSITVDNCKKLGLVFDDVVGIVEIINSKDVKVQVMGKVPTISINKTDGCHAYLSKNSLDCEIVSAKSSEMNVLIPTEGGDFNEFPVPEQFKTLWNGQKLVTTVTEIAG
As to B1, the Kd is 0.45 µM in test [2], 0.11 µM in test [3] and 2.32 µM in test [4].
